For one molecule, recruitment activity relative to wild type (% of wild type) results are on record in PMC3025549.

For this test, the target named is recombinant mjRNAP (RNA polymerase of M. jannaschii), wild type (M. jannaschii) (UniProt Q58445). As to the kind of experiment: native gel or EMSA. (In general: In EMSA bound probe runs differently from free probe, usually more slowly.)

B1: mjTFIIB K87-A (natural protein)
chain: MVWLMEALKTKENETTKEKKLTTKVEKSEKKEENVREEEIVCPICGSKEVVKDYERAEIVCAKCGCVIKEKLFDIGPEWRAFDHEQAIKRCRVGAPMTYSVDYNEPIIIKENGEIKVVKIGELIDKIIENSENIRREGILEIAKCKGIEVIAFNSNYKFKFMPVSEVSRHPVSEMFEIVVEGNKKVRVTRSHSVFTIRDNEVVPIRVDELKVGDILVLAKELPNIEEDIEIDKKFSKILGYIIAEGYYDDKKIVLSYDYNEKEFINETIDYFKSLNSDITIYSKDLNIQIEVKNKKIINLLKKLRVKNKRIPSIIFKSPYEIKKSFIDGIFNGKDAKVFVSKELAEDVIFLLLQIKENATINKKSINDIEVYEVRRITNIYTNRKLEKLINSDFIFLKIKEINKVEPTSGYAYDLTVPNAENFVAGFGGFVLHNTIHDKGLSTVIDWRNKDSYGKDLSANKRAQLYRLRKWQRRIRVSDAAERNLAFALSELDRITSKLGLPRHVRENAAIIYRGAVEKGLIRGRSIEGVVAAAIYAACRRCRVPRTLDEIAEASRVDRKEIGRTYRFLARELNIKLTPTNPIDYVPRFASELGLPGEVESKAIQILQQAAEKGLTSGRGPTGVAAAAIYIASVLLGCRRTQREVAEVAGVTEVTIRNRYKELTEHLDIDVTL
As to B1, the recruitment activity relative to wild type (% of wild type) stood at 140.
